Experimental data published in the supplement of paper PMC7877785.
± gives the uncertainty stated by the source.

Experiment: self-splicing fitness, log relative to wild type (ln ratio); higher = more splicing; Tetrahymena group I intron in knt gene, E. coli kanamycin selection, DiMSum; sequences stand for … in CUCUCU…GGAGGGAAAAGUUAUCAGGCAUGCACCUGGUAGCUAGUCUUUAAACCAAUAGAUUGCAUCGGUUUAAAAGGCAAGACCGUCAAAUUGCGGGAAAGGGGUCAACAGCCGUUCAGUACCAAGUCUCAGGGGAAACUUUGAGAUGGCCUUGCAAAGGGUAUGGUAAUAAGCUGACGGACAUGGUCCUAACCACGCAGCCAAGUCCUAAGUCAACAGAUCUUCUGUUGAUAUGGAUGCAGUUCACAGACUAAAUGUCGGUCGGGGAAGAUGUAUUCUUCUCAUAAGAUAUAGUCGGACCUCUCCUUAAUGGGAGCUAGCGGAUGAAGUGAUGCAACACUGGAGCCGCUGGGAACUAAUUUGUAUGCGAAAGUAUAUUGAUUAGUUUUGGAGUACUCGUGGUCG
Outline: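 Pooled colonies went to amplicon sequencing on an Illumina HiSeq 2500 after six replicate transformations. The plates were LB agar with 100 μg/mL carbenicillin, 50 μM IPTG and 0.2% rhamnose, with or without 25 μg/mL kanamycin, incubated overnight at 37°C or 30°C. The E. coli BL21(DE3) library had all eight P1ex-region intron nucleotides randomised, the intron placed in the knt kanamycin-resistance gene on pET-22b(+). DiMSum fitness is the error-weighted combination of replicate fold changes, kanamycin against none, normalised to wild type.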

Sequence: AUGCAGCAAUAUUACGACAC
- self-splicing fitness (ln) (30 °C): -0.537 ± 0.077
- self-splicing fitness (ln) (37 °C): 0.312 ± 0.11

Sequence: GGACAGCAAUAUUACGCGCC
- self-splicing fitness (ln) (30 °C): -2.93 ± 0.2

Sequence: GCUGAGCAAUAUUACGAUCC
- self-splicing fitness (ln) (30 °C): -1.34 ± 0.15
- self-splicing fitness (ln) (37 °C): 0.743 ± 0.24

Sequence: AGUUAGCAAUAUUACGAGCA
- self-splicing fitness (ln) (30 °C): -0.518 ± 0.11
- self-splicing fitness (ln) (37 °C): -0.169 ± 0.12

Sequence: UCCGAGCAAUAUUACGGAUA
- self-splicing fitness (ln) (30 °C): -2.34 ± 0.25
- self-splicing fitness (ln) (37 °C): -2.61 ± 0.19

Sequence: UUCAAGCAAUAUUACGAAUA
- self-splicing fitness (ln) (30 °C): -2.07 ± 0.18
- self-splicing fitness (ln) (37 °C): -0.837 ± 0.12

Sequence: CGACAGCAAUAUUACGGGUA
- self-splicing fitness (ln) (30 °C): -4.49 ± 0.28
- self-splicing fitness (ln) (37 °C): -1.49 ± 0.12

Sequence: CAACAGCAAUAUUACGUCGU
- self-splicing fitness (ln) (30 °C): -3.65 ± 0.12
- self-splicing fitness (ln) (37 °C): -2.16 ± 0.11

Sequence: UCCCAGCAAUAUUACGUUAA
- self-splicing fitness (ln) (30 °C): -1.89 ± 0.093
- self-splicing fitness (ln) (37 °C): -0.696 ± 0.085

Sequence: CUGUAGCAAUAUUACGCGAA
- self-splicing fitness (ln) (30 °C): -1.86 ± 0.35
- self-splicing fitness (ln) (37 °C): -2.26 ± 0.45

Sequence: AAGCAGCAAUAUUACGGCAC
- self-splicing fitness (ln) (30 °C): -0.574 ± 0.072
- self-splicing fitness (ln) (37 °C): -0.149 ± 0.098

Sequence: UCUAAGCAAUAUUACGUGAG
- self-splicing fitness (ln) (30 °C): -1.32 ± 0.074
- self-splicing fitness (ln) (37 °C): 0.269 ± 0.096

Sequence: UGGAAGCAAUAUUACGGCAA
- self-splicing fitness (ln) (30 °C): -1.72 ± 0.39
- self-splicing fitness (ln) (37 °C): 0.0721 ± 0.21

Sequence: ACUAAGCAAUAUUACGGUUU
- self-splicing fitness (ln) (30 °C): -2.05 ± 0.091
- self-splicing fitness (ln) (37 °C): -0.745 ± 0.096

Sequence: ACGUAGCAAUAUUACGGAAA
- self-splicing fitness (ln) (30 °C): -2.27 ± 0.4
- self-splicing fitness (ln) (37 °C): -1.94 ± 0.33

Sequence: GGAGAGCAAUAUUACGGGGG
- self-splicing fitness (ln) (37 °C): -1.49 ± 0.46

Sequence: AAAGAGCAAUAUUACGCGGA
- self-splicing fitness (ln) (30 °C): -3.29 ± 0.33
- self-splicing fitness (ln) (37 °C): -2.33 ± 0.22

Sequence: AACUAGCAAUAUUACGAUGU
- self-splicing fitness (ln) (30 °C): -0.797 ± 0.082
- self-splicing fitness (ln) (37 °C): -0.157 ± 0.12

Sequence: AGUGAGCAAUAUUACGGUUA
- self-splicing fitness (ln) (30 °C): -2.29 ± 0.23
- self-splicing fitness (ln) (37 °C): -2.48 ± 0.2

Sequence: CAGUAGCAAUAUUACGCUGA
- self-splicing fitness (ln) (30 °C): -2.07 ± 0.24
- self-splicing fitness (ln) (37 °C): -1.95 ± 0.3

Sequence: CUGUAGCAAUAUUACGCUUA
- self-splicing fitness (ln) (30 °C): -3.24 ± 0.37
- self-splicing fitness (ln) (37 °C): -3.24 ± 0.43

Sequence: UGCGAGCAAUAUUACGGAUA
- self-splicing fitness (ln) (30 °C): -2.36 ± 0.27
- self-splicing fitness (ln) (37 °C): -2.08 ± 0.36

Sequence: AGUAAGCAAUAUUACGCAAU
- self-splicing fitness (ln) (30 °C): -2.52 ± 0.14
- self-splicing fitness (ln) (37 °C): -1.17 ± 0.16

Sequence: CACGAGCAAUAUUACGGCAA
- self-splicing fitness (ln) (30 °C): -3.69 ± 0.27
- self-splicing fitness (ln) (37 °C): -2.09 ± 0.14

Sequence: GGAAAGCAAUAUUACGUAGC
- self-splicing fitness (ln) (30 °C): -2.63 ± 0.22
- self-splicing fitness (ln) (37 °C): -2.34 ± 0.23

Sequence: CCUUAGCAAUAUUACGAUUC
- self-splicing fitness (ln) (30 °C): -3.68 ± 0.25
- self-splicing fitness (ln) (37 °C): -3.28 ± 0.47

Sequence: CAUGAGCAAUAUUACGCGAA
- self-splicing fitness (ln) (30 °C): -3.03 ± 0.17
- self-splicing fitness (ln) (37 °C): -1.57 ± 0.15

Sequence: ACUGAGCAAUAUUACGCUAU
- self-splicing fitness (ln) (30 °C): -3.58 ± 0.15
- self-splicing fitness (ln) (37 °C): -2.42 ± 0.14

Sequence: GGGGAGCAAUAUUACGAUGA
- self-splicing fitness (ln) (30 °C): -2.02 ± 0.3
- self-splicing fitness (ln) (37 °C): -2.57 ± 0.37

Sequence: AAACAGCAAUAUUACGCGAA
- self-splicing fitness (ln) (30 °C): -1.95 ± 0.096
- self-splicing fitness (ln) (37 °C): -1.43 ± 0.11

Sequence: AUGGAGCAAUAUUACGGAUA
- self-splicing fitness (ln) (30 °C): -2.46 ± 0.17
- self-splicing fitness (ln) (37 °C): -2.21 ± 0.28

Sequence: GACCAGCAAUAUUACGCCCA
- self-splicing fitness (ln) (30 °C): -0.923 ± 0.16
- self-splicing fitness (ln) (37 °C): 0.179 ± 0.19

Sequence: UCUUAGCAAUAUUACGACAC
- self-splicing fitness (ln) (30 °C): -2.77 ± 0.46
- self-splicing fitness (ln) (37 °C): -1.65 ± 0.22

Sequence: GGGGAGCAAUAUUACGAUGG
- self-splicing fitness (ln) (30 °C): -2.44 ± 0.45
- self-splicing fitness (ln) (37 °C): -2.67 ± 0.44

Sequence: UUUUAGCAAUAUUACGCGAC
- self-splicing fitness (ln) (30 °C): -2.52 ± 0.34

Sequence: UAGAAGCAAUAUUACGCGGG
- self-splicing fitness (ln) (30 °C): -2.4 ± 0.14
- self-splicing fitness (ln) (37 °C): -1.1 ± 0.13

Sequence: GUCCAGCAAUAUUACGCAAC
- self-splicing fitness (ln) (30 °C): -0.987 ± 0.099
- self-splicing fitness (ln) (37 °C): -0.844 ± 0.11

Sequence: GACGAGCAAUAUUACGAUAA
- self-splicing fitness (ln) (37 °C): -2.09 ± 0.43

Sequence: CUCAAGCAAUAUUACGCCCC
- self-splicing fitness (ln) (37 °C): -1.28 ± 0.5

Sequence: AGACAGCAAUAUUACGCUAC
- self-splicing fitness (ln) (30 °C): -2.43 ± 0.2
- self-splicing fitness (ln) (37 °C): -2.61 ± 0.33

Sequence: GGGCAGCAAUAUUACGUAGA
- self-splicing fitness (ln) (30 °C): -1.53 ± 0.063
- self-splicing fitness (ln) (37 °C): -0.244 ± 0.083

Sequence: CAGAAGCAAUAUUACGCCAG
- self-splicing fitness (ln) (30 °C): -0.586 ± 0.072
- self-splicing fitness (ln) (37 °C): -0.605 ± 0.12

Sequence: CUAUAGCAAUAUUACGUAGG
- self-splicing fitness (ln) (30 °C): -1.44 ± 0.085
- self-splicing fitness (ln) (37 °C): -0.685 ± 0.13

Sequence: CUCAAGCAAUAUUACGCUUA
- self-splicing fitness (ln) (30 °C): -2.62 ± 0.27
- self-splicing fitness (ln) (37 °C): -3.26 ± 0.37

Sequence: GCGGAGCAAUAUUACGUCCU
- self-splicing fitness (ln) (30 °C): -1.31 ± 0.25
- self-splicing fitness (ln) (37 °C): -0.651 ± 0.41

Sequence: AGAUAGCAAUAUUACGUACU
- self-splicing fitness (ln) (30 °C): -0.357 ± 0.15
- self-splicing fitness (ln) (37 °C): -0.0062 ± 0.15

Sequence: CACGAGCAAUAUUACGUCGG
- self-splicing fitness (ln) (30 °C): -2.27 ± 0.11
- self-splicing fitness (ln) (37 °C): -2.16 ± 0.17

Sequence: UAUCAGCAAUAUUACGGCUG
- self-splicing fitness (ln) (30 °C): -3.56 ± 0.2
- self-splicing fitness (ln) (37 °C): -1.78 ± 0.15

Sequence: GAACAGCAAUAUUACGUCUU
- self-splicing fitness (ln) (30 °C): -0.598 ± 0.07
- self-splicing fitness (ln) (37 °C): 0.229 ± 0.089
